Target: J1a DBLβ domain (wild type) (Plasmodium falciparum)
Assay: SPR

B1: ICAM-1^D1D5-Fc (Fc fusion)
chain: QTSVSPSKVILPRGGSVLVTCSTSCDQPKLLGIETPLPKKELLLPGNNRKVYELSNVQEDSQPMCYSNCPDGQSTAKTFLTVYWTPERVELAPLPSWQPVGKNLTLRCQVEGGAPRANLTVVLLRGEKELKREPAVGEPAEVTTTVLVRRDHHGANFSCRTELDLRPQGLELFENTSAPYQLQTFVLPATPPQLVSPRVLEVDTQGTVVCSLDGLFPVSEAQVHLALGDQRLNPTVTYGNDSFSAKASVSVTAEDEGTQRLTCAVILGNQSQETLQTVTIYSFPAPNVILTKPEVSEGTEVTVKCEAHPRAKVTLNGVPAQPLGPRAQLLLKATPEDNGRSFSCSATLEVAGQLIHKNQTRELRVLYGPRLDERDCPGNWTWPENSQQTPMCQAWGNPLPELKCLKDGTFPLPIGESVTVTRDLEGTYLCRARSTQGEVTRKVTVNVLSPRYE
Binder B1 has a Kd of 262 nM.

Source: publication PMC6778195 (2019)
